Assay results taken from publication PMC4753422.

Molecular target: papain (UniProt P00784)
Assay: enzyme inhibition kinetics (papain proteolysis progress curves); anti-papain activity from papain proteolysis progress curves with the fluorigenic substrate Z-Phe-Arg-methylcoumarin; apparent (said of the Cysta-tag's constant)

UniProt P00784, sequence (P00784 134-345): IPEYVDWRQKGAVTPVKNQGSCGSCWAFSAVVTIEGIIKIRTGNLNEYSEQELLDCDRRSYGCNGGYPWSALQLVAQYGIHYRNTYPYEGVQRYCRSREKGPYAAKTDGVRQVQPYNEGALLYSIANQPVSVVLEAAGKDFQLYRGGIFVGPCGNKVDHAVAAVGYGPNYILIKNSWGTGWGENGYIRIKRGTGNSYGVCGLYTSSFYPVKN

| Kd [nM] | Substance |
| --- | --- |
| 43 | tomato multicystatin domain SlCYS8 (domain or fragment) |
| 42 | Cysta-tag (Ala-62-(His)6-Gly-63 variant of SlCYS8) (domain or fragment) |
